Consider two substances from PMC9515155.

Assay [1] concerns the target human IgE (Calbiochem) (human). Kind of assay: SPR. The conditions noted are these: Fc fusion.
The target in another assay is IgE_(TRAP) (human) (UniProt P12319). In words: SPR; ProteOn XPR36, GLC chip; 500 RU of IgE_(TRAP) immobilised in acetate buffer pH 4.0 (850 RU of omalizumab at pH 5.5); human IgE flowed over; PBS with 0.005% Tween-20, 30 μL/min.

human IgE (Calbiochem) (natural protein), sequence (P01854 whole entry): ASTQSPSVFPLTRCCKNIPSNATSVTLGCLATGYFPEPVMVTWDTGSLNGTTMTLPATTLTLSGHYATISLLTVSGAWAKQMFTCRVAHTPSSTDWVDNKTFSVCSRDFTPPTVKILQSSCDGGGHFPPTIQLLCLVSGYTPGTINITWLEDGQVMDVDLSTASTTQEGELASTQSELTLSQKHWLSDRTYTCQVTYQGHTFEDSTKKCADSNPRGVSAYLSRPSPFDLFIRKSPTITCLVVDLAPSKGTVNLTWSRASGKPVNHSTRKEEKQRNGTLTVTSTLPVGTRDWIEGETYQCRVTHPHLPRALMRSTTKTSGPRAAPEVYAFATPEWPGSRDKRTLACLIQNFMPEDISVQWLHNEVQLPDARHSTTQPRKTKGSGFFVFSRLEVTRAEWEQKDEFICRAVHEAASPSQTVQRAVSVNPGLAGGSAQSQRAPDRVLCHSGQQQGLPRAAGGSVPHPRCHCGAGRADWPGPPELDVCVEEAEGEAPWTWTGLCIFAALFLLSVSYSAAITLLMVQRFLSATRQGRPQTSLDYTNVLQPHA
human IgE (Calbiochem) (human), sequence (P01854 whole entry, the tested form may be a part): as the sequence (P01854 whole entry) above

As usually defined, the Kd is the constant that tells how readily two partners part at equilibrium. High values mean weaker binding, low ones tighter binding. A word on the koff: it is the rate constant with which the complex falls apart. A lower koff goes with slow dissociation. In the case of “IgE_(TRAP) (from UniProt P12319 25-205; P01880 133-170; P01861 121-327)”, in assay [1], the Kd was determined as 215 pM and the koff came out at 5.69e-05 s⁻¹.

As to “human IgE (Calbiochem) (natural protein)”, in the assay with IgE_(TRAP) (human), the fold higher binding affinity than omalizumab was found to be 69 fold, the fold lower association rate constant (Ka) than omalizumab turned out to be 1.5 fold and the fold lower dissociation rate constant (Kd) than omalizumab came to 105 fold.
